Experimental data taken from the supplement of paper PMC10201428.
± gives the standard deviation of the averaged measurements.

B1: library; a variant is named by its letters at N, in order (parent)
chain: ACATTTGTTGATACAACCATAAAATGATAATTACACCCATAAATTGATAATTATCACACCCANNNNNNNNNNNNNNCTCTGATCATAGTCAGACCAACATTGCTACGACCCGTATTCGCACCGACAC

Assays:
[1] = variants of: B1; assay: relative integration efficiency (T-RL orientation) vs wild-type transposon end (log2 (normalized fold change)); transposon end mutated: right end (5 bp flank + 75 bp right end); higher = more efficient transposition; details: with VchCAST RNA-guided transposition machinery (E. coli BL21(DE3) host, lacZ target)
Experimental: (§1)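 Pooled, barcoded VchCAST (Tn6677) mini-transposon donor libraries; each variable transposon-end sequence sits in a fixed pDonor mini-transposon context (10-bp barcode and cargo not included). Left- or right-end libraries were co-transformed with pEffector (TniQ-Cascade, TnsABC, lacZ crRNA, T7, 0.1 mM IPTG) into E. coli BL21(DE3) and grown 18 h at 37 C. T-LR and T-RL junction amplicons were sequenced; output/input barcode fold change was normalised to the mean of four wild-type barcodes and log2-transformed. Two biological replicates; zero-count/undetected variants carry floor values (-10 / -15), censored here. Barcode uncoupling by PCR recombination adds noise.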

[2] = variants of: B1; assay: relative integration efficiency (T-LR orientation) vs wild-type transposon end (log2 (normalized fold change)); transposon end mutated: right end (5 bp flank + 75 bp right end); higher = more efficient transposition; details: with VchCAST RNA-guided transposition machinery (E. coli BL21(DE3) host, lacZ target)
Experimental: as §1

Variant	relative integration efficiency (log2) [1]	relative integration efficiency (log2) [2]
ACATCTGTTGATACAACCATAAAATGATAATTACACCCATAAATTGATAATTATCACACCCATAAATTGATATTGCCTCTGATCATAGTCAGACCAACATTGCTACGACCCGTATTCGCACCGACAC [TAAATTGATATTGC T5C]	-0.234 ± 0.068	-0.488 ± 0.12
ACATGTGTTGATACAACCATAAAATGATAATTACACCCATAAATTGATAATTATCACACCCATAAATTGATATTGCCTCTGATCATAGTCAGACCAACATTGCTACGACCCGTATTCGCACCGACAC [TAAATTGATATTGC T5G]	-0.23 ± 0.018	-0.319 ± 0.36
ACATATGTTGATACAACCATAAAATGATAATTACACCCATAAATTGATAATTATCACACCCATAAATTGATATTGCCTCTGATCATAGTCAGACCAACATTGCTACGACCCGTATTCGCACCGACAC [TAAATTGATATTGC T5A]	0.0941 ± 0.11	0.163 ± 0.31
ACATTTGTTGATACAACCAAAAAATGATAATTACACCCATAAATTGATAATTATCACACCCATAAATTGATATTGCCTCTGATCATAGTCAGACCAACATTGCTACGACCCGTATTCGCACCGACAC [TAAATTGATATTGC T20A]	-0.299 ± 0.1	-0.359 ± 0.083
ACATTTGTTGATACAACCAGAAAATGATAATTACACCCATAAATTGATAATTATCACACCCATAAATTGATATTGCCTCTGATCATAGTCAGACCAACATTGCTACGACCCGTATTCGCACCGACAC [TAAATTGATATTGC T20G]	-1.34 ± 0.03	-1.12 ± 0.28
ACATTTGTTGATACAACCACAAAATGATAATTACACCCATAAATTGATAATTATCACACCCATAAATTGATATTGCCTCTGATCATAGTCAGACCAACATTGCTACGACCCGTATTCGCACCGACAC [TAAATTGATATTGC T20C]	-0.448 ± 0.19	-0.577 ± 0.33
ACATTTGTTGAGACAACCATAAAATGATAATTACACCCATAAATTGATAATTATCACACCCATAAATTGATATTGCCTCTGATCATAGTCAGACCAACATTGCTACGACCCGTATTCGCACCGACAC [TAAATTGATATTGC T12G]	-0.147 ± 0.043	-1.06 ± 0.57
ACATTTGTTGACACAACCATAAAATGATAATTACACCCATAAATTGATAATTATCACACCCATAAATTGATATTGCCTCTGATCATAGTCAGACCAACATTGCTACGACCCGTATTCGCACCGACAC [TAAATTGATATTGC T12C]	-0.235 ± 0.019	-0.906 ± 0.64
ACATTTGTTGAAACAACCATAAAATGATAATTACACCCATAAATTGATAATTATCACACCCATAAATTGATATTGCCTCTGATCATAGTCAGACCAACATTGCTACGACCCGTATTCGCACCGACAC [TAAATTGATATTGC T12A]	-0.107 ± 0.031	-0.916 ± 0.17
ACATTCGTTGATACAACCATAAAATGATAATTACACCCATAAATTGATAATTATCACACCCATAAATTGATATTGCCTCTGATCATAGTCAGACCAACATTGCTACGACCCGTATTCGCACCGACAC [TAAATTGATATTGC T6C]	-1.81 ± 0.2	-2.11 ± 0.46
ACATTAGTTGATACAACCATAAAATGATAATTACACCCATAAATTGATAATTATCACACCCATAAATTGATATTGCCTCTGATCATAGTCAGACCAACATTGCTACGACCCGTATTCGCACCGACAC [TAAATTGATATTGC T6A]	-5.81 ± 0.51	-5.94 ± 1.9
ACATTGGTTGATACAACCATAAAATGATAATTACACCCATAAATTGATAATTATCACACCCATAAATTGATATTGCCTCTGATCATAGTCAGACCAACATTGCTACGACCCGTATTCGCACCGACAC [TAAATTGATATTGC T6G]	-6.66 ± 0.074	-5.28 ± 0.39
ACATTTGTGGATACAACCATAAAATGATAATTACACCCATAAATTGATAATTATCACACCCATAAATTGATATTGCCTCTGATCATAGTCAGACCAACATTGCTACGACCCGTATTCGCACCGACAC [TAAATTGATATTGC T9G]	0.104 ± 0.038	0.0503 ± 0.46
ACATTTGTAGATACAACCATAAAATGATAATTACACCCATAAATTGATAATTATCACACCCATAAATTGATATTGCCTCTGATCATAGTCAGACCAACATTGCTACGACCCGTATTCGCACCGACAC [TAAATTGATATTGC T9A]	-0.0594 ± 0.085	-0.234 ± 0.3
ACATTTGTCGATACAACCATAAAATGATAATTACACCCATAAATTGATAATTATCACACCCATAAATTGATATTGCCTCTGATCATAGTCAGACCAACATTGCTACGACCCGTATTCGCACCGACAC [TAAATTGATATTGC T9C]	0.234 ± 0.012	0.331 ± 0.42
ACATTTGGTGATACAACCATAAAATGATAATTACACCCATAAATTGATAATTATCACACCCATAAATTGATATTGCCTCTGATCATAGTCAGACCAACATTGCTACGACCCGTATTCGCACCGACAC [TAAATTGATATTGC T8G]	-5.89 ± 0.83	-3.6 ± 0.47
ACATTTGATGATACAACCATAAAATGATAATTACACCCATAAATTGATAATTATCACACCCATAAATTGATATTGCCTCTGATCATAGTCAGACCAACATTGCTACGACCCGTATTCGCACCGACAC [TAAATTGATATTGC T8A]	-0.814 ± 0.13	-1.99 ± 0.69
ACATTTGCTGATACAACCATAAAATGATAATTACACCCATAAATTGATAATTATCACACCCATAAATTGATATTGCCTCTGATCATAGTCAGACCAACATTGCTACGACCCGTATTCGCACCGACAC [TAAATTGATATTGC T8C]	-0.808 ± 0.29	-2.19 ± 0.042
ACATTTGTTGATACAACCATAAAAAGATAATTACACCCATAAATTGATAATTATCACACCCATAAATTGATATTGCCTCTGATCATAGTCAGACCAACATTGCTACGACCCGTATTCGCACCGACAC [TAAATTGATATTGC T25A]	-0.524 ± 0.069	-0.8 ± 0.34
ACATTTGTTGATACAACCATAAAATGATAATTACACCCATAAATTTATAATTATCACACCCATAAATTGATATTGCCTCTGATCATAGTCAGACCAACATTGCTACGACCCGTATTCGCACCGACAC [TAAATTGATATTGC G46T]	-0.423 ± 0.077	-0.734 ± 0.14
ACAATTGTTGATACAACCATAAAATGATAATTACACCCATAAATTGATAATTATCACACCCATAAATTGATATTGCCTCTGATCATAGTCAGACCAACATTGCTACGACCCGTATTCGCACCGACAC [TAAATTGATATTGC T4A]	-0.153 ± 0.014	-0.113 ± 0.32
ACAGTTGTTGATACAACCATAAAATGATAATTACACCCATAAATTGATAATTATCACACCCATAAATTGATATTGCCTCTGATCATAGTCAGACCAACATTGCTACGACCCGTATTCGCACCGACAC [TAAATTGATATTGC T4G]	-0.1742 ± 0.00091	0.405 ± 0.34
ACACTTGTTGATACAACCATAAAATGATAATTACACCCATAAATTGATAATTATCACACCCATAAATTGATATTGCCTCTGATCATAGTCAGACCAACATTGCTACGACCCGTATTCGCACCGACAC [TAAATTGATATTGC T4C]	-0.0535 ± 0.0038	-0.0603 ± 0.29
